# Patent US20240343803A1 (SHANDONG SIMCERE BIOPHARMACEUTICAL, published 2024)
# T1: human PVRIG-his (AcroBiosystems, Cat NO. PVG-H52H4) (human, UniProt Q6DKI7 41-171, limits assumed)
# T1 construct: also called human PVRIG protein
# T1 sequence (looked up): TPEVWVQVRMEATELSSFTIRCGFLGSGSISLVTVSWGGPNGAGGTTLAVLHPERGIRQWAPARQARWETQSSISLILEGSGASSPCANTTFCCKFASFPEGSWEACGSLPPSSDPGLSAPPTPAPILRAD
# T2: cynomolgus monkey PVRIG on FlpinCHO-cyno PVRIG cells (cynomolgus monkey, UniProt A0A2K5WVV8 41-322)
# T2 construct: whole, on cells; also called FlpinCHO-cynomolgus monkey PVRIG
# T2 sequence: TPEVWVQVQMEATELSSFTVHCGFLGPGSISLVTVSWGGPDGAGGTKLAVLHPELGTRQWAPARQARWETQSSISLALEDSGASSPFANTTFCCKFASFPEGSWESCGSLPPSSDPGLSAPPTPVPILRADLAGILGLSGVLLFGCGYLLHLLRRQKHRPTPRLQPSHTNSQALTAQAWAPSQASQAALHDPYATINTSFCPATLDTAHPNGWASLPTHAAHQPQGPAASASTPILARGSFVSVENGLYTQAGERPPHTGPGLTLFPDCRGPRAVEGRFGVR
# T3: human PVRIG-mFc protein (Acro, PVG-H5253) (human, UniProt Q6DKI7 41-171, limits assumed)
# T3 construct: bought reagent; also called PVRIG-ECD-mFc
# T3 sequence (looked up): T1 sequence (looked up)
# B1: PVRIG-A50 (Fc fusion)
# chain: EVQLVESGGGLVQPGGSLRLSCAASGFTFSYYDMSWVRQAPGKGLEWVSTINSNGGRTSYVDSVKGRFTISRDNTKNTLYLQMNSLKPEDTAVYYCVEGDPHNFGLENLSLRDFGSWGQGTQVTVSS
# notes: heavy chain antibody VHH-hinge-CH2-CH3, human IgG1 constant part; also called PVRIG-50; not shown: human IgG1 hinge-CH2-CH3
# B2: PVRIG-A118 (Fc fusion)
# chain: QVQLVESGGGLVQAGGSLRLSCAASETYFDLYVMGWYRQAPGKDRELVATITYTGSIKIVDSVKDRFTISRGDAKNTVSLQMSSLKPEDTAVYFCNADPSGLGRKVYWGQGTQVTVSS
# notes: heavy chain antibody VHH-hinge-CH2-CH3, human IgG1 constant part; not shown: human IgG1 hinge-CH2-CH3
# B3: PVRIG-A105 (VHH)
# VHH: EVQLVESGGGLVQAGGSLRLSCAASGRTFDRHTMTWFRQAPGKEREFVATASRIPGDTYYSHSVKGRFTISRDNAKNTVYLQLNNLKPEDTAVYYCAATSAYCSEVDCYEKGSWYDNWGQGIQVTVSS
# notes: tested as VHH-hinge-CH2-CH3 (human IgG1-Fc); not shown: human IgG1 hinge-CH2-CH3
# B4: PVRIG-A105 (Fc fusion)
# chain: B3 VHH
# notes: as for B2
# B5: SRF813-hIgG1 (antibody, V domains shown)
# VH: QVQLVQSGAEVKKPGSSVKVSCKASGGTFSSAAISWVRQAPGQGLEWMGNIIPIVGIANYAQKFQGRVTITADESTSTAYMELSSLRSEDTAVYYCARDTGRGYTRHFWFDPWGQGTLVTVSS
# VL: DIQMTQSPSSLSASVGDRVTITCRASQSISSYLNWYQQKPGKAPKLLIYAASSLQSGVPSRFSGSGSGTDFTLTISSLQPEDFATYYCQQSDILYTFGGGTKVEIK
# notes: human IgG1 format by its name
# How the values were obtained:
# [1] = target: T1, human PVRIG-his (AcroBiosystems, Cat …); assay: competition ELISA, PVRIG-His coated, competitor human PVRL2-mFc
# Method: The ELISA plate was pre-coated with 100 μL/well of 0.5 μg/mL human PVRIG-his protein (AcroBiosystems, Cat NO. PVG-H52H4). The tested anti-PVRIG antibodies were diluted from the highest concentration of 16 nM (two-fold concentration). The diluted antibodies were mixed with 18 ng/ml human PVRL2-mFc (AcroBiosystems, Cat NO. CD2-H5257) in equal volume, added into the plate (100 μL/well), and incubated with shaking at room temperature for 2.0 hours. […] A HRP substrate, TMB (Thermo, Cat NO. 34029) was added into wells after washing the plate again for color development. After adding a termination solution to terminate the reaction, the absorbance value was read by a microplate reader (MD i3×). An inhibiting curve was drawn with concentration of antibodies as the abscissa and the corresponding OD value as the ordinate. The IC50 value was calculated by using a Four Parameter Logistic Fit (GraphPadPrism9). The smaller the IC50 value, the stronger the ability of the antibodies inhibits the binding between PVRIG and PVRL2. The positive and negative controls are the same as in Example 8.
# [2] = target: T2, cynomolgus monkey PVRIG on …; assay: FACS, FlpinCHO-cyno PVRIG cells
# Method: After discarding the cell culture medium, the cells were rinsed with PBS and digested for 8-10 minutes by adding 1 mL Versene (Gibico, 15040-066). The Ham's F12 (Gibico, 21127-022) complete medium containing 10% FBS was then added to terminate the digestion and acquire cell suspension. After counting with a cell counter (Beckman Coulter, Vi-CELL), an appropriate amount of cell suspension was centrifuged at 350×g to remove the supernatant, washed twice with PBS, stained with Zombie violet (Biolegend, 423114) and incubated at room temperature for 20 minutes. After incubation, the cells were added with staining buffer (2% FBS+PBS) to stop staining, centrifuged at 350×g to remove the supernatant, washed twice and resuspended with staining buffer to a density of 2×10⁶ cells/mL. The cells were plated into a 96-well plate (50 μL of cell suspension per well) for further use. The antibodies were diluted from the highest concentration of 46 nM (two-fold concentration) with staining buffer by 3.3-fold serial dilution. The diluted antibodies were added to the well containing 50 μL of cell suspension. The plate was placed on a microplate shaker at 400 rpm for 1 minute to fully mix the antibodies and cells, and then incubated at 4° C. for 30 minutes. After the incubation, the cells were washed twice with staining buffer (200 μL per well) and centrifuged at 350×g for 5 minutes to discard the supernatant. The PE goat anti-human IgG Fc antibody (ebioscience, 12-4998-82) was diluted 250 times with staining buffer, added into the washed wells (100 μL per well), mixed well, and stained at 4° C. for 30 minutes. After staining, the cells were washed twice with staining buffer, finally resuspended with 200 μL staining buffer and analyzed by flow cytometry (BD, Canto II). […] An antibody binding curve was drawn with concentration of antibodies as the abscissa and the corresponding Mean Fluorescence Intensity (MFI) as the ordinate. The AUC value of the curve was calculated by using a Four Parameter Logistic Fit (GraphPadPrism9). […]
# [3] = target: T3, human PVRIG-mFc protein (Acro, …); assay: competition FACS; blocked: human PVRIG-mFc binding to CHO-K1-CD112 cells
# In short: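 Antibody dilutions premixed with human PVRIG-mFc (working solution 1 μg/mL, four-fold concentration) for 30 min at 4° C, then incubated with CHO-K1-CD112 cells 30 min at 4° C. Bound PVRIG-mFc detected by PE anti-mouse IgG Fc flow cytometry; IC50 and AUC from four-parameter fit of MFI versus antibody concentration.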
binder,measurement,setting,value
B1,IC50,[1],196 pM
B2,IC50,[1],51.4 pM
B3,EC50 (read off the curve),[2],~500 pM
same,IC50 (read off the curve),[3],~1000 pM
B4,IC50,[1],57.1 pM
B5,EC50 (read off the curve),[2],~1000 pM
same,IC50 (read off the curve),[3],~1000 pM
